Laboratory results reported in PMC12675262 (Journal of Experimental Botany, 2025).

Biological target: the molecule itself
Test: SEC

B1: Synechocystis sp. PCC 6803 fructose-1,6-bisphosphatase (FBPase; slr0952) (enzyme, UniProt P74324 1-347, looked up)
chain: MTVSEIHIPNSLLDRDCTTLSRHVLQQLNSFGADAQDLSAIMNRIALAGKLIARRLSRAGLMADVLGFTGETNVQGESVKKMDVFANDVFISVFKQSGLVCRLASEEMEKPYYIPENCPIGRYTLLYDPIDGSSNVDINLNVGSIFAIRQQEGDDLDGSASDLLANGDKQIAAGYILYGPSTILVYSLGSGVHSFILDPSLGEFILAQENIRIPNHGPIYSTNEGNFWQWDEALRDYTRYVHRHEGYTARYSGALVGDIHRILMQGGVFLYPGTEKNPDGKLRLLYETAPLAFLVEQAGGRASDGQKRLLDLIPSKLHQRTPAIIGSAEDVKLVESFISDHKQRQGN
For B1, the “stoichiometry N” value was 4.
